This passage reports co-IP/MS count, C-term IgG and co-IP mass spectrometry count results from patent publication US20240261333A1, “NOVEL TARGETS FOR ENHANCING ANTI-TUMOR IMMUNITY” (THE BROAD INSTITUTE, INC., priority 2021, published 2024).

The target of one assay is PSMB5 (human) (UniProt P28074). The experiment in a line: co-IP with IgG control, lysate of C-FLAG B3GNT2 cells, mass spectrometry.
The target in another assay is JUP (human) (UniProt P14923). The assay is described as above.
The target of a further assay is TTC13 (human) (UniProt Q8NBP0). The description is as above.
A further assay addresses RPL17 (human) (UniProt P18621). The assay is described as above.
The next assay has as its target TPM2 (human) (UniProt P07951). The description is as above.
A further assay has as its target HNRNPH1 (human) (UniProt P31943). The assay is described as above.
A further assay has as its target XPOT (human) (UniProt O43592). Described as above.
In the next assay the target is MMS19 (human) (UniProt Q96T76). The description is as above.
A further assay concerns the target UniProt P01837.1. The description is as above.
The target in a further assay is ARHGEF2 (human) (UniProt Q92974). Kind of assay: co-IP with anti-FLAG, mass spectrometry; lysate of cells with N-FLAG B3GNT2.
The target in a further assay is ZC3HAV1 (human) (UniProt Q7Z2W4). Described as above.
The target of a further assay is ILF3 (human) (UniProt Q12906). The assay is described as above.
A further assay concerns the target RPS27 (human) (UniProt P42677). The assay is described as above.
Another assay has as its target DNAJB11 (human) (UniProt Q9UBS4). The assay is described as above.
Another assay has as its target ARF4 (human) (UniProt P18085). The description is as above.
The next assay deals with EPRS (human) (UniProt P07814). Described as above.
The next assay concerns the target MSN (human) (UniProt P26038). The assay is described as above.
Another assay has as its target MYO1C (human) (UniProt O00159). The assay is described as above.
The target in the next assay is EIF4A1 (human) (UniProt P60842). Described as above.
Another assay addresses SLC25A5 (human) (UniProt P05141). Described as above.
The target in a further assay is UGGT1 (human) (UniProt Q9NYU2). The description is as above.
The target of the next assay is PSMD4 (human) (UniProt P55036). The description is as above.
The target in the next assay is HSPD1 (human) (UniProt P10809). Described as above.
The target of another assay is PIGR (human) (UniProt P01833). The assay is described as above.
The next assay concerns the target SPRR1A (human) (UniProt P35321). Described as above.
Another assay addresses MARS (human) (UniProt P56192). Described as above.
Another assay addresses SEL1L (human) (UniProt Q9UBV2). Described as above.
The next assay concerns the target RPL35 (UniProt P42766). Kind of assay: co-IP, anti-FLAG, N-FLAG B3GNT2 cell lysate, mass spectrometry.
The next assay addresses DNAJA2 (UniProt O60884). The assay is described as above.
A further assay concerns the target TMEM59 (UniProt Q9BXS4). The assay is described as above.
The next assay addresses PBXIP1 (UniProt Q96AQ6). The assay is described as above.
The target of the next assay is MTCH2 (UniProt Q9Y6C9). The description is as above.
Another assay deals with ITGB3 (UniProt P05106). The assay is described as above.
For another assay, the target named is RPL3 (UniProt P39023). Described as above.
Another assay concerns the target MTDH (UniProt Q86UE4). Described as above.
Another assay concerns the target RPL27A (UniProt P46776). The description is as above.
In the next assay the target is TAGLN (UniProt Q01995). Described as above.
Another assay has as its target CDSN (UniProt Q15517). The assay is described as above.

Sequence of EPRS (human) (P07814 whole entry): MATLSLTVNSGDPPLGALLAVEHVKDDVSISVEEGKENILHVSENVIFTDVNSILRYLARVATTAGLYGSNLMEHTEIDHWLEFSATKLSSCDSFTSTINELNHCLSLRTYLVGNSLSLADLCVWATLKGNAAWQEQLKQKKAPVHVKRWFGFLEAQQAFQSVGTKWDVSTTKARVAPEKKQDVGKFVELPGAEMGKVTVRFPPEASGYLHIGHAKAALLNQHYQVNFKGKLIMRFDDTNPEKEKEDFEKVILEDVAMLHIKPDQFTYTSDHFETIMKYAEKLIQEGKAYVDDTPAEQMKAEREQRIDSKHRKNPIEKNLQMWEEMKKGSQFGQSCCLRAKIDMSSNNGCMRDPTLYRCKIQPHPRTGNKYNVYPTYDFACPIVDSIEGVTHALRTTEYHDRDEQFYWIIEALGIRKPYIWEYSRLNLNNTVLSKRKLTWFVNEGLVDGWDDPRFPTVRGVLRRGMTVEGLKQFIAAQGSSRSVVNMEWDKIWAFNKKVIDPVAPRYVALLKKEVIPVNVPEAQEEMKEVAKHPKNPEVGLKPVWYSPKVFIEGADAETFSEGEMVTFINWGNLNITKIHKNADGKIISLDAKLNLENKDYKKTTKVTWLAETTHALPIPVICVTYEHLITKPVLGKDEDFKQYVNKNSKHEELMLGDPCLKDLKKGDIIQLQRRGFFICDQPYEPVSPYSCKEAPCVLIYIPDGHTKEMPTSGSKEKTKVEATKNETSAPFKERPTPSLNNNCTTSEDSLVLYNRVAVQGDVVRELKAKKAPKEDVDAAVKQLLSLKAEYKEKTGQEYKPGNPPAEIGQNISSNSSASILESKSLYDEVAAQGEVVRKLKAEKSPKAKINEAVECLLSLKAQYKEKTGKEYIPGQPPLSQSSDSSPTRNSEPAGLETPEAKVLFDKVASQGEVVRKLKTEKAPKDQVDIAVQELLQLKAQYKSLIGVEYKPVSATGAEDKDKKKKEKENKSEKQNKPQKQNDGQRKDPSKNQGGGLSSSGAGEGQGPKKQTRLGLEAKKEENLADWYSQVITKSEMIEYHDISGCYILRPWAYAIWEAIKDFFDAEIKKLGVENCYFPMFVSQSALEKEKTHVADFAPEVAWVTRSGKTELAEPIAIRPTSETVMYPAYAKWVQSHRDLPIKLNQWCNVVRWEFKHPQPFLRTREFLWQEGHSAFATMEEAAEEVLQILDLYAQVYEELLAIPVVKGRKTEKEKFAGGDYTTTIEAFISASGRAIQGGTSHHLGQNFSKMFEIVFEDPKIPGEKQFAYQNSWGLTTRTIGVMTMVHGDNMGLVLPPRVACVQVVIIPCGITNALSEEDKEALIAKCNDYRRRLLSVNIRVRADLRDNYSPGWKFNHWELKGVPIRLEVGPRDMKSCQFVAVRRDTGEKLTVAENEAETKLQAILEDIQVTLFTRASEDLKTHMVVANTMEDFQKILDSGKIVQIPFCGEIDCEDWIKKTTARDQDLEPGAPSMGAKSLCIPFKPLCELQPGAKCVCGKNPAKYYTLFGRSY
Sequence of HSPD1 (human) (P10809 27-573 limits assumed): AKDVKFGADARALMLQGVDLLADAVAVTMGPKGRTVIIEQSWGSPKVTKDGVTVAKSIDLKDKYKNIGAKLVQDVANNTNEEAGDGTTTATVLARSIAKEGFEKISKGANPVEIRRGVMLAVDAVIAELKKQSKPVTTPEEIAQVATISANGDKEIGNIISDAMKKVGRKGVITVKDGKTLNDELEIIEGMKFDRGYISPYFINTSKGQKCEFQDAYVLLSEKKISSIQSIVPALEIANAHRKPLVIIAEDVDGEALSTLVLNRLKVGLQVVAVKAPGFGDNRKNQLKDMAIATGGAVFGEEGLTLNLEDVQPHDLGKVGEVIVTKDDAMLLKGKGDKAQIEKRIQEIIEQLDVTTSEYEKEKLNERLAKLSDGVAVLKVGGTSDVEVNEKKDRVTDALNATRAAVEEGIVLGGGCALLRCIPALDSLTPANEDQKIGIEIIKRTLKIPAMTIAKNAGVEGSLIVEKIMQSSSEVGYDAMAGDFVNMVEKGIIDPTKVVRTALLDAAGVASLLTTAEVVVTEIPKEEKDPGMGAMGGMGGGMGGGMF
Sequence of MARS (human) (P56192 whole entry): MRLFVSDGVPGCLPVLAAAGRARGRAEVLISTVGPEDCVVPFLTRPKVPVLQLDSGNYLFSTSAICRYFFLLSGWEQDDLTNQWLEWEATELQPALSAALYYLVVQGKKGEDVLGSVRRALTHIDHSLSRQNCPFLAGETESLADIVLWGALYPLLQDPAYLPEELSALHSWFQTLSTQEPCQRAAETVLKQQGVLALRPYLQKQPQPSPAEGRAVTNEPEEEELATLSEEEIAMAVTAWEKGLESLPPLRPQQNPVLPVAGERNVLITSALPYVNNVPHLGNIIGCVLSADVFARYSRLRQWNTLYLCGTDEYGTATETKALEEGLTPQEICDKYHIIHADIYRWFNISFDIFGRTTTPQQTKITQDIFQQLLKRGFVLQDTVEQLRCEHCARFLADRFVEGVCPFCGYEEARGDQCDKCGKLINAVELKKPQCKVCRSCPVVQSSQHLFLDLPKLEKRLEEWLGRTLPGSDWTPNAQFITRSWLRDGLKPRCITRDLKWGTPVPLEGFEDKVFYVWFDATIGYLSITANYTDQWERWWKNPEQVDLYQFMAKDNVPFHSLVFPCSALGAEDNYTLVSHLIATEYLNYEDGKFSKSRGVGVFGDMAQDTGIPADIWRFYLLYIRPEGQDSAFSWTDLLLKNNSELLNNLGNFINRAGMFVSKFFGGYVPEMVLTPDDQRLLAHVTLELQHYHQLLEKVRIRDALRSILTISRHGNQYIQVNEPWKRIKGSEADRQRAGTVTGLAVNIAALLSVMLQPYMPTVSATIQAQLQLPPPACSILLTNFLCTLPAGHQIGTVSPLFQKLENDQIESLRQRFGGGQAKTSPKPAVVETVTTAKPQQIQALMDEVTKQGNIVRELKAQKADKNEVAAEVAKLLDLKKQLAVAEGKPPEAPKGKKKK
Sequence of MYO1C (human) (O00159 other isoform, or with tags, fused parts or gaps limits assumed): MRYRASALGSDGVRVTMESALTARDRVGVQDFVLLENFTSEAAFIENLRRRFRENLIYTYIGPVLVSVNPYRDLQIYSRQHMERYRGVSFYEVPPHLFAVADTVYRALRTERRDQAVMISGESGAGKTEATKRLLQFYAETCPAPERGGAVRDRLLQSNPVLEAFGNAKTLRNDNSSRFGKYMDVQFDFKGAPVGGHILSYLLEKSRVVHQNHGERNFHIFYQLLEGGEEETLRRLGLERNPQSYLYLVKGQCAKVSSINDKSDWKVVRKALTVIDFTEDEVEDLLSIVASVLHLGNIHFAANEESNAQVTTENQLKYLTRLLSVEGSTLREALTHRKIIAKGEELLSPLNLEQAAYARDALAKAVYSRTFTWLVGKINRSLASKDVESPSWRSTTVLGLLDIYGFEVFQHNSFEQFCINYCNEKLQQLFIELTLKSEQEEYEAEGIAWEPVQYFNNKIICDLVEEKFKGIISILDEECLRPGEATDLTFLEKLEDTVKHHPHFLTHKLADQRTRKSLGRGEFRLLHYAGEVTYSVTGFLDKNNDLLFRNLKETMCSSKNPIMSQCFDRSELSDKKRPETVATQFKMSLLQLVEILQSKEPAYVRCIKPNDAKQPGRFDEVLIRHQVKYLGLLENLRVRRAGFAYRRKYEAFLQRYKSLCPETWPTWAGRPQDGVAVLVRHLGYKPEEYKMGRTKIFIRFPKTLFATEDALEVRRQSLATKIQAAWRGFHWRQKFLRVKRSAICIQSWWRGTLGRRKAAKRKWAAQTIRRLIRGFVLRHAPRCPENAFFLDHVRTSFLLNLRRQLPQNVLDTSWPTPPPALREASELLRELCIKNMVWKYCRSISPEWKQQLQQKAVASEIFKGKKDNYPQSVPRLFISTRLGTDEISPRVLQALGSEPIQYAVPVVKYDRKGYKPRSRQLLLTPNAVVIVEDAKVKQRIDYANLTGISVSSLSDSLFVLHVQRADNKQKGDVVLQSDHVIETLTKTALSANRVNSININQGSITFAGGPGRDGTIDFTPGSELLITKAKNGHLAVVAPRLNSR
Sequence of ARF4 (human) (P18085 2-180 limits assumed): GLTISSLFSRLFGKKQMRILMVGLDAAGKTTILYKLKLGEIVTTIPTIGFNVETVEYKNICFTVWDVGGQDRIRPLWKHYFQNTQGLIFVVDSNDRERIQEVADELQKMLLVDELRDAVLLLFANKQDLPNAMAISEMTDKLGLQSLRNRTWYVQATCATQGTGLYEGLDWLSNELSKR
Sequence of PIGR (human) (P01833 19-764 limits assumed): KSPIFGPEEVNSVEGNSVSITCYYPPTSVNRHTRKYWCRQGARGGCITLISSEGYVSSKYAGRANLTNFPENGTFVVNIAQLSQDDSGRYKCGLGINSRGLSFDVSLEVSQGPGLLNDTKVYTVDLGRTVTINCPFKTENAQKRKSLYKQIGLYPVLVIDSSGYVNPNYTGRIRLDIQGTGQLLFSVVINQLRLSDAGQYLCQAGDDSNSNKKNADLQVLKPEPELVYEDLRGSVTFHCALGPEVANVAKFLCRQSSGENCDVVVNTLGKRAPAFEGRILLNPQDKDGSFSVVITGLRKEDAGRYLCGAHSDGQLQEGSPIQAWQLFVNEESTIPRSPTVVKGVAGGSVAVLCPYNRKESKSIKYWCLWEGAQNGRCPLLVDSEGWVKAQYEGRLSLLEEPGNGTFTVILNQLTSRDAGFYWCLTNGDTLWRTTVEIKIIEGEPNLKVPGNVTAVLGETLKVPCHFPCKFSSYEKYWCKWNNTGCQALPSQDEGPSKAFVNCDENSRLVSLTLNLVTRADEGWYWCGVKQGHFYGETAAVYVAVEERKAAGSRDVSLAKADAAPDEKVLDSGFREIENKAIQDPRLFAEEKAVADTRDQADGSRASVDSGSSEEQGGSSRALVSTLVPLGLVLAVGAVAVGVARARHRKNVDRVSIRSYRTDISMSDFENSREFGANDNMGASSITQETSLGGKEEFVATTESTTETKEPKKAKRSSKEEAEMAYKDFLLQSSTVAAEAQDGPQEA
Sequence of SPRR1A (human) (P35321 whole entry): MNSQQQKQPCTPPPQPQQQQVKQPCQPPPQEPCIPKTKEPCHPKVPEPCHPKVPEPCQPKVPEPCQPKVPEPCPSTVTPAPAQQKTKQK

Turning to “IgG control (Millipore Sigma 12-371) (antibody)”, the co-IP/MS count, C-term IgG with PSMB5 (human) is 0; in the assay with JUP (human), 36; with TTC13 (human) it was 0; with RPL17 (human), 2; with TPM2 (human), 0; with HNRNPH1 (human), 11. The co-IP/MS count, C-term IgG with XPOT (human) worked out at 0; with MMS19 (human), 0; with UniProt P01837.1 it was 108.

As to “N-terminal FLAG tagged B3GNT2 (from UniProt Q9NY97 1-397) (enzyme)”, the co-IP mass spectrometry count in the assay with ARHGEF2 (human) turned out to be 0; in the assay with ZC3HAV1 (human), 3; in the assay with ILF3 (human) it was 2; with RPS27 (human), 2; with DNAJB11 (human), 3; with ARF4 (human) it was 4. Further, the co-IP mass spectrometry count in the assay with EPRS (human) is 3; with MSN (human) it was 3; with MYO1C (human), 4; in the assay with EIF4A1 (human) it was 2; with SLC25A5 (human), 19; in the assay with UGGT1 (human), 2. Further, the co-IP mass spectrometry count with PSMD4 (human) stood at 2; with HSPD1 (human) it was 10; with PIGR (human) it was 2; in the assay with SPRR1A (human) it was 4; in the assay with MARS (human), 2; with SEL1L (human), 3. Also, the co-IP mass spectrometry count in the assay with RPL35 came out at 7; with DNAJA2, 3; in the assay with TMEM59, 6; with PBXIP1 it was 2; in the assay with MTCH2 it was 4; in the assay with ITGB3, 3. Also, the co-IP mass spectrometry count turned out to be 8 in the assay with RPL3; 0 in the assay with MTDH; 7 with RPL27A; 2 with TAGLN; 5 with CDSN.
